From patent US20150011431A1
Values belong to the substance of their own block, whether it stands above or below them.

Biological target: CXCR1 (UniProt P25024)
Experiment: cell-based or functional assay

Sequence of CXCR1 (P25024 whole entry): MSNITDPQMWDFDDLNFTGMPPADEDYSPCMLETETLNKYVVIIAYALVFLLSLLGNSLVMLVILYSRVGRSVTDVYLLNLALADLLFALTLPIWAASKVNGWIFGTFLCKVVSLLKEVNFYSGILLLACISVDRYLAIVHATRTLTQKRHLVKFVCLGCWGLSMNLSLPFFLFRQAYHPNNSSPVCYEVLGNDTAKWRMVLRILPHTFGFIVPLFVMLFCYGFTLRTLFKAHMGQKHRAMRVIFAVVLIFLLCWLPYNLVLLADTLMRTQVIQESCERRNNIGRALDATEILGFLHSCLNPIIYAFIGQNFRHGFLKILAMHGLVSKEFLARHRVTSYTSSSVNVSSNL
Sequence of IL-8 (soluble cytokine) (P10145 28-99 limits assumed): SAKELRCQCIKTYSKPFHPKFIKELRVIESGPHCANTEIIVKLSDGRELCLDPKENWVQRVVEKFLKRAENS

average RLU at 0.01 nM (beta-arrestin recruitment reporter, CXCR1-U2OS cells): 440 RLU
average RLU at 0.08 nM (beta-arrestin recruitment reporter, CXCR1-U2OS cells): 504 RLU
average RLU at 0.23 nM (beta-arrestin recruitment reporter, CXCR1-U2OS cells): 940 RLU
average RLU at 0.69 nM (beta-arrestin recruitment reporter, CXCR1-U2OS cells): 1940 RLU
average RLU at 2.06 nM (beta-arrestin recruitment reporter, CXCR1-U2OS cells): 4110 RLU
average RLU at 6.17 nM (beta-arrestin recruitment reporter, CXCR1-U2OS cells): 5870 RLU
average RLU at 18.52 nM (beta-arrestin recruitment reporter, CXCR1-U2OS cells): 7300 RLU
average RLU at 31.5 nM (beta-arrestin recruitment reporter, CXCR1-U2OS cells): 55500 RLU
average RLU at 55.56 nM (beta-arrestin recruitment reporter, CXCR1-U2OS cells): 7360 RLU
average RLU at 166.67 nM (beta-arrestin recruitment reporter, CXCR1-U2OS cells): 6770 RLU
average RLU at 500.00 nM (beta-arrestin recruitment reporter, CXCR1-U2OS cells): 5720 RLU
Substance: IL-8 (soluble cytokine) (from UniProt P10145 28-99) (ligand)

average RLU at 0.001 nM IgG (beta-arrestin recruitment reporter, CXCR1-U2OS cells): 7500 RLU
average RLU at 0.004 nM IgG (beta-arrestin recruitment reporter, CXCR1-U2OS cells): 7390 RLU
average RLU at 0.013 nM IgG (beta-arrestin recruitment reporter, CXCR1-U2OS cells): 7050 RLU
average RLU at 0.040 nM IgG (beta-arrestin recruitment reporter, CXCR1-U2OS cells): 6970 RLU
average RLU at 0.120 nM IgG (beta-arrestin recruitment reporter, CXCR1-U2OS cells): 7330 RLU
average RLU at 0.359 nM IgG (beta-arrestin recruitment reporter, CXCR1-U2OS cells): 6690 RLU
average RLU at 1.076 nM IgG (beta-arrestin recruitment reporter, CXCR1-U2OS cells): 7180 RLU
average RLU at 3.228 nM IgG (beta-arrestin recruitment reporter, CXCR1-U2OS cells): 7030 RLU
average RLU at 9.685 nM IgG (beta-arrestin recruitment reporter, CXCR1-U2OS cells): 7170 RLU
average RLU at 29.056 nM IgG (beta-arrestin recruitment reporter, CXCR1-U2OS cells): 7100 RLU
average RLU at 87.167 nM IgG (beta-arrestin recruitment reporter, CXCR1-U2OS cells): 7140 RLU
average RLU at 261.500 nM IgG (beta-arrestin recruitment reporter, CXCR1-U2OS cells): 7540 RLU
Substance: IgG VH4-4 CDR3 BsaI (lacking the IL-8 insert) (antibody)
